Experimental data taken from patent US20220213456.

System: T1, OMNI-47 (Peptoniphilus obesi ph1)
T1 sequence: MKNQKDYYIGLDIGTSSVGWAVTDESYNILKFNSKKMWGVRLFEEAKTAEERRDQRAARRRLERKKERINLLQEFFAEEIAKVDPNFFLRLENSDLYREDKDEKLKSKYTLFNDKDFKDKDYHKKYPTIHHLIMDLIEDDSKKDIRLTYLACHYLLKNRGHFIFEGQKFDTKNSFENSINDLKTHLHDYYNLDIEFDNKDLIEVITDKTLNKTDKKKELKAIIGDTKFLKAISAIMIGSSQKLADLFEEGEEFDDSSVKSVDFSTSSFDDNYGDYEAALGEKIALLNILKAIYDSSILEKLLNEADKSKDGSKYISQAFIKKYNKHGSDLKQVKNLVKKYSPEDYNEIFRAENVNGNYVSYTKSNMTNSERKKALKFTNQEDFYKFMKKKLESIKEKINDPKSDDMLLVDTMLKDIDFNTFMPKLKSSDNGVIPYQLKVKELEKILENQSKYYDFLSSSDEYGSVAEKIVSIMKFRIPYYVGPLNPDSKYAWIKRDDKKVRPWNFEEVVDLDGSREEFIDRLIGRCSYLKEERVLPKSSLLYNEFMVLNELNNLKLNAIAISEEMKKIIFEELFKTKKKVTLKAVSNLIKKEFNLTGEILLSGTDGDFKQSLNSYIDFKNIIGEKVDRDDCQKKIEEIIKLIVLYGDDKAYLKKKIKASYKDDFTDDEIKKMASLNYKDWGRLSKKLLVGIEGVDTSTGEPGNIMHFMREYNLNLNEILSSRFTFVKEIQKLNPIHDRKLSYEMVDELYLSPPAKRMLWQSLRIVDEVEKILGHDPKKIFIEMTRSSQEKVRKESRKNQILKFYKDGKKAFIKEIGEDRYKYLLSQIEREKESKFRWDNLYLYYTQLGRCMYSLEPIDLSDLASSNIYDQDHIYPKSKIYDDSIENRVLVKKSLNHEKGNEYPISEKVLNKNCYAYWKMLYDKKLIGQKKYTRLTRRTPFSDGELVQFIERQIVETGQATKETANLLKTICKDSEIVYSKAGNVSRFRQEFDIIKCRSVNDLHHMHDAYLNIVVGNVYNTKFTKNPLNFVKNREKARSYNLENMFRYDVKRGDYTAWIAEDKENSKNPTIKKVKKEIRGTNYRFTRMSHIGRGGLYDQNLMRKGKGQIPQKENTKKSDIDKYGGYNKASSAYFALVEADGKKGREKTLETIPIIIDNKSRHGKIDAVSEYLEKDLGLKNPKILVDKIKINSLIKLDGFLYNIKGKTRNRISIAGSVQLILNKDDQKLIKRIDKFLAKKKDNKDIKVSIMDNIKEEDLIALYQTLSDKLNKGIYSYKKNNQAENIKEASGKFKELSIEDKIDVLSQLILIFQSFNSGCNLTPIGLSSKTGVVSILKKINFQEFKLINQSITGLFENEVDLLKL
Experiment: cleavage_in_vitro
Settings: TXTL; PAM NVYR (specific NRTA); V1, V2 tested

## GGAAGAGCAGAGCCUUGGUCUCGUUUGAGAGUUAUGGAAACAUGAUGAGUUCAAAUAAAAAUUUAUUCAAAUCGCCCAUUAUGGGCCGCAGAUGUUCUGCAUUAUAUGCUUGCAAGUUGCAAGCUUUUUUU / GGAAGAGCAGAGCCTTGGTCTCNNNNNNNN / NNNNNNNNGAGACCAAGGCTCTGCTCTTCC [OMNI-47 T2 sgRNA V1 ; pbPOS T2 protospacer 8N PAM library]
  activity (1-depletion score): 0.98
